Source: EP4563528A1

Columns and labels:
[1] = molecular target: human IgG (human); test: depletion of 10 mg/ml IgG solution, 1 mg particles per 50 µL, single half-hour incubation
[2] = molecular target: human IgG (human); test: depletion of IgG from 50 µL human serum with 1 mg nanoparticles, 60 min with stirring at room temperature

percent of IgG removed [1]: > 90% | IgG elimination capacity [2]: > 90%
Substance: protein G' (protein G devoid of the albumin recognition region), covalently bound to silica mesoporous nanoparticles (from UniProt P19909 314-497)
